T1: FcγRIIb (human, UniProt P31994 43-217)
T1 construct: extracellular domain; Soluble extracellular domain with C-terminal His tag, used as analyte; also called FcgRIIb; CD32B; not shown: His tag at the C terminus
T1 sequence (looked up): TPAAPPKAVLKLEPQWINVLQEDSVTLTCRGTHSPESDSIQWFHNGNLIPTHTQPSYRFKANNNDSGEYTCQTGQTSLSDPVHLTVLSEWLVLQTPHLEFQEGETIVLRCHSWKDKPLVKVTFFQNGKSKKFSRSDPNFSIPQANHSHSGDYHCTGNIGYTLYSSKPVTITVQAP


Tests used:
FcγRIIb = target: T1, FcγRIIb; experiment: SPR (Biacore), captured antibody, FcγR as analyte, relative binding
Protocol: (§1) The heterodimerized antibodies He Abs in which one of the H chains was introduced with an alteration were assayed for their binding activities to each activating FcγR and inhibitory FcγR according to the method described in Example 4. […] The activating FcγRs in FIGS. 26, 27, 28, and 29 are FcγRIa, FcγRIIa (R), FcγRIIa (H), and FcγRIIIa, respectively.
(§2) Analysis of interaction between objective antibody and the FcγR was carried out using Biacore T100 (GE Healthcare). HBS-EP+ (GE Healthcare) was used as the running buffer, and the measurement temperature was set to 25° C. Chips produced by immobilizing the antigen peptide by the amine coupling method to a Series S Sencor Chip CM5 (GE Healthcare), or alternatively, chips produced by allowing preliminarily biotinylated antigen peptides to interact with and immobilize onto a Series S Sensor Chip SA (certified) (GE Healthcare) were used. Antibodies of interest were captured onto an antigen peptide-immobilized chip, and allowed to interact to each FcγR diluted with running buffer. To regenerate and repeatedly use the chip, the antibodies captured on the chip were washed off by reacting 10 mM glycine-HCl, pH 1.5.

FcγRIa = target: T2, FcγRIa (human, UniProt P12314 16-292); experiment: as above
T2 construct: extracellular domain; Soluble extracellular domain with C-terminal His tag, used as analyte; also called FcgRI; CD64; not shown: His tag at the C terminus
Protocol: as §1, §2

T2 sequence (P12314 16-292): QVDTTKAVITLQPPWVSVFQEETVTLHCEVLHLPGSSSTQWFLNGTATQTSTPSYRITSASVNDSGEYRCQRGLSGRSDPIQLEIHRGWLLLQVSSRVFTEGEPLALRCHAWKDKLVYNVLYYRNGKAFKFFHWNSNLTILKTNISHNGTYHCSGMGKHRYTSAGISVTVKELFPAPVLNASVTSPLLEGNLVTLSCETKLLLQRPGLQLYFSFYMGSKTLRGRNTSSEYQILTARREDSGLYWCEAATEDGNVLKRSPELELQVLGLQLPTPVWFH

Row | Binder | He/Con_2b (FcγRIIb) | He/Con_1a (FcγRIa)
1 | GpH7-A5/GpH7-B3 variant I336_09D/GpL16-k0 (antibody, human IgG1, kappa, He Ab: mutation in one H chain only; also called He Ab) heavy 1: not shown heavy 2: not shown light: DIVMTQSPLSLPVTPGEPASISCQASESLVHSNRNTYLHWYLQKPGQSPQLLIYKVSNRFSGVPDRFSGSGSGTDFTLKISRVEAEDVGVYYCSQNTHVPPTFGQGTKVEIERTVAAPSVFIFPPSDEQLKSGTASVVCLLNNFYPREAKVQWKVDNALQSGNSQESVTEQDSKDSTYSLSSTLTLSKADYEKHKVYACEVTHQGLSSPVTKSFNRGEC | 92.1 % of GpH7-A5/GpH7-B3/GpL16-k0 | 104 % of GpH7-A5/GpH7-B3/GpL16-k0
2 | GpH7-A5/GpH7-B3 variant A327_04F/GpL16-k0 (antibody, human IgG1, kappa, He Ab: mutation in one H chain only; also called He Ab) heavy 1: not shown heavy 2: not shown light: DIVMTQSPLSLPVTPGEPASISCQASESLVHSNRNTYLHWYLQKPGQSPQLLIYKVSNRFSGVPDRFSGSGSGTDFTLKISRVEAEDVGVYYCSQNTHVPPTFGQGTKVEIERTVAAPSVFIFPPSDEQLKSGTASVVCLLNNFYPREAKVQWKVDNALQSGNSQESVTEQDSKDSTYSLSSTLTLSKADYEKHKVYACEVTHQGLSSPVTKSFNRGEC | 63.7 % of GpH7-A5/GpH7-B3/GpL16-k0 | 99.1 % of GpH7-A5/GpH7-B3/GpL16-k0
3 | GpH7-A5/GpH7-B3 variant I336_04F/GpL16-k0 (antibody, human IgG1, kappa, He Ab: mutation in one H chain only; also called He Ab) heavy 1: not shown heavy 2: not shown light: DIVMTQSPLSLPVTPGEPASISCQASESLVHSNRNTYLHWYLQKPGQSPQLLIYKVSNRFSGVPDRFSGSGSGTDFTLKISRVEAEDVGVYYCSQNTHVPPTFGQGTKVEIERTVAAPSVFIFPPSDEQLKSGTASVVCLLNNFYPREAKVQWKVDNALQSGNSQESVTEQDSKDSTYSLSSTLTLSKADYEKHKVYACEVTHQGLSSPVTKSFNRGEC | 91.2 % of GpH7-A5/GpH7-B3/GpL16-k0 | 106 % of GpH7-A5/GpH7-B3/GpL16-k0
4 | GpH7-A5/GpH7-B3 variant A327_13S/GpL16-k0 (antibody, human IgG1, kappa, He Ab: mutation in one H chain only; also called He Ab) heavy 1: not shown heavy 2: not shown light: DIVMTQSPLSLPVTPGEPASISCQASESLVHSNRNTYLHWYLQKPGQSPQLLIYKVSNRFSGVPDRFSGSGSGTDFTLKISRVEAEDVGVYYCSQNTHVPPTFGQGTKVEIERTVAAPSVFIFPPSDEQLKSGTASVVCLLNNFYPREAKVQWKVDNALQSGNSQESVTEQDSKDSTYSLSSTLTLSKADYEKHKVYACEVTHQGLSSPVTKSFNRGEC | 79.5 % of GpH7-A5/GpH7-B3/GpL16-k0 | 102 % of GpH7-A5/GpH7-B3/GpL16-k0
5 | GpH7-A5/GpH7-B3 variant A327_11K/GpL16-k0 (antibody, human IgG1, kappa, He Ab: mutation in one H chain only; also called He Ab) heavy 1: not shown heavy 2: not shown light: DIVMTQSPLSLPVTPGEPASISCQASESLVHSNRNTYLHWYLQKPGQSPQLLIYKVSNRFSGVPDRFSGSGSGTDFTLKISRVEAEDVGVYYCSQNTHVPPTFGQGTKVEIERTVAAPSVFIFPPSDEQLKSGTASVVCLLNNFYPREAKVQWKVDNALQSGNSQESVTEQDSKDSTYSLSSTLTLSKADYEKHKVYACEVTHQGLSSPVTKSFNRGEC | 12.5 % of GpH7-A5/GpH7-B3/GpL16-k0 | 86.1 % of GpH7-A5/GpH7-B3/GpL16-k0

Now from value to binder:

Row | He/Con_2b (FcγRIIb) | He/Con_1a (FcγRIa) | Binder
6 | 92.1 % of GpH7-A5/GpH7-B3/GpL16-k0 | 102 % of GpH7-A5/GpH7-B3/GpL16-k0 | GpH7-A5/GpH7-B3 variant I336_12R/GpL16-k0 (antibody, human IgG1, kappa, He Ab: mutation in one H chain only; also called He Ab) heavy 1: not shown heavy 2: not shown light: DIVMTQSPLSLPVTPGEPASISCQASESLVHSNRNTYLHWYLQKPGQSPQLLIYKVSNRFSGVPDRFSGSGSGTDFTLKISRVEAEDVGVYYCSQNTHVPPTFGQGTKVEIERTVAAPSVFIFPPSDEQLKSGTASVVCLLNNFYPREAKVQWKVDNALQSGNSQESVTEQDSKDSTYSLSSTLTLSKADYEKHKVYACEVTHQGLSSPVTKSFNRGEC
7 | 90.3 % of GpH7-A5/GpH7-B3/GpL16-k0 | 105 % of GpH7-A5/GpH7-B3/GpL16-k0 | GpH7-A5/GpH7-B3 variant I336_11K/GpL16-k0 (antibody, human IgG1, kappa, He Ab: mutation in one H chain only; also called He Ab) heavy 1: not shown heavy 2: not shown light: DIVMTQSPLSLPVTPGEPASISCQASESLVHSNRNTYLHWYLQKPGQSPQLLIYKVSNRFSGVPDRFSGSGSGTDFTLKISRVEAEDVGVYYCSQNTHVPPTFGQGTKVEIERTVAAPSVFIFPPSDEQLKSGTASVVCLLNNFYPREAKVQWKVDNALQSGNSQESVTEQDSKDSTYSLSSTLTLSKADYEKHKVYACEVTHQGLSSPVTKSFNRGEC
8 | 83.7 % of GpH7-A5/GpH7-B3/GpL16-k0 | 102 % of GpH7-A5/GpH7-B3/GpL16-k0 | GpH7-A5/GpH7-B3 variant I336_13S/GpL16-k0 (antibody, human IgG1, kappa, He Ab: mutation in one H chain only; also called He Ab) heavy 1: not shown heavy 2: not shown light: DIVMTQSPLSLPVTPGEPASISCQASESLVHSNRNTYLHWYLQKPGQSPQLLIYKVSNRFSGVPDRFSGSGSGTDFTLKISRVEAEDVGVYYCSQNTHVPPTFGQGTKVEIERTVAAPSVFIFPPSDEQLKSGTASVVCLLNNFYPREAKVQWKVDNALQSGNSQESVTEQDSKDSTYSLSSTLTLSKADYEKHKVYACEVTHQGLSSPVTKSFNRGEC
9 | 89.8 % of GpH7-A5/GpH7-B3/GpL16-k0 | 108 % of GpH7-A5/GpH7-B3/GpL16-k0 | GpH7-A5/GpH7-B3 variant I336_10E/GpL16-k0 (antibody, human IgG1, kappa, He Ab: mutation in one H chain only; also called He Ab) heavy 1: not shown heavy 2: not shown light: DIVMTQSPLSLPVTPGEPASISCQASESLVHSNRNTYLHWYLQKPGQSPQLLIYKVSNRFSGVPDRFSGSGSGTDFTLKISRVEAEDVGVYYCSQNTHVPPTFGQGTKVEIERTVAAPSVFIFPPSDEQLKSGTASVVCLLNNFYPREAKVQWKVDNALQSGNSQESVTEQDSKDSTYSLSSTLTLSKADYEKHKVYACEVTHQGLSSPVTKSFNRGEC

Source: US20150344570A1 (published 2015)
